Data reported in paper PMC11743776, “Isoxazole-based molecules restore NK cell immune surveillance in hepatocarcinogenesis by targeting TM4SF5 and SLAMF7 linkage” (Signal Transduction and Targeted Therapy, 2025).

T1: TM4SF5 (Homo sapiens, UniProt O14894)
T1 construct: Strep-TM4SF5 WT (pulled down from HEK293FT) or HA-TM4SF5 (immunoprecipitated from Huh7KO)
T1 sequence (O14894 1-197): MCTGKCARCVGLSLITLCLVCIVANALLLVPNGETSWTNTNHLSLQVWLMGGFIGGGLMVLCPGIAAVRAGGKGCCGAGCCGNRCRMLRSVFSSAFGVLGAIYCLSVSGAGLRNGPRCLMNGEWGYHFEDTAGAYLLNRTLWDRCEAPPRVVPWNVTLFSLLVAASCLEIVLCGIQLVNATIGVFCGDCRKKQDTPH

B1: SLAMF7: NQ#6 (protein)
parent chain: MAGSPTCLTLIYILWQLTGSAASGPVKELVGSVGGAVTFPLKSKVKQVDSIVWTFNTTPLVTIQPEGGTIIVTQNRNRERVDFPDGGYSLKLSKLKKNDSGIYYVGIYSSSLQQPSTQEYVLHVYEHLSKPKVTMGLQSNKNGTCVTNLTCCMEHGEEDVIYTWKALGQAANESHNGSILPISWRWGESDMTFICVARNPVSRNFSSPILARKLCEGAADDPDSSMVLLCLLLVPLLLSLFVLGLFLWFLKRERQEEYIEEKKRVDICRETPNICPHSGENTEYDTIPHTNRTILKEDPANTVYSTVEIPKKMENPHSLLTMPDTPRLFAYENVI
B2: SLAMF7: NQ#456 (protein)
parent chain: B1 parent chain
B3: SLAMF7: NQ#123 (protein)
parent chain: B1 parent chain
B4: SLAMF7: NQ#1 (protein)
parent chain: B1 parent chain
B5: SLAMF7: NQ#2 (protein)
parent chain: B1 parent chain
B6: SLAMF7: NQ#3 (protein)
parent chain: B1 parent chain
B7: SLAMF7: NQ#1456 (protein)
parent chain: B1 parent chain
B8: SLAMF7: NQ#2456 (protein)
parent chain: B1 parent chain
B9: SLAMF7: NQ#23456 (protein)
parent chain: B1 parent chain
B10: TM4SF5: Gly− (protein)
parent chain: T1 sequence (O14894 1-197)

Target: T1, TM4SF5
Assay: […]-radioligand binding to pulled-down/immunoprecipitated TM4SF5, blocked by cold ST-5-002; EC50 by titration (about […] or […] for the differently tagged proteins)
Conditions: not given

**Q.** Which EC50 does the source give for Cc1ccc(C(=O)Nc2ccc(-c3cc(-c4ccc(O)cc4)no3)cc2)cc1 [ST-5-002, N-(4-(3-(4-hydroxyphenyl)isoxazol-5-yl)phenyl)-4-methylbenzamide] here?
**A.** ~850 nM

Target: not listed separately
Assay: confocal immunofluorescence colocalisation
Conditions: glycan lost; control: FLAG-SLAMF7 WT

**Q.** Which localisation_or_trafficking does the source give for B1 here?
**A.** abolishes

**Q.** With B2 as the molecule, how does the localisation_or_trafficking read?
**A.** abolishes

**Q.** With B3 as the molecule, how does the localisation_or_trafficking read?
**A.** no change

Target: not listed separately
Assay: immunoblot of SLAMF7 level with TM4SF5 expression
Conditions: glycan lost; control: WT SLAMF7, TM4SF5 co-expressed

**Q.** With B2 as the molecule, how does the expression_or_secretion read?
**A.** increases

**Q.** With B3 as the molecule, how does the expression_or_secretion read?
**A.** no change

**Q.** For B4, which expression_or_secretion is on record?
**A.** no change

**Q.** With B5 as the molecule, how does the expression_or_secretion read?
**A.** no change

**Q.** Which expression_or_secretion does the source give for B6 here?
**A.** no change

**Q.** Which expression_or_secretion does the source give for B7 here?
**A.** increases

**Q.** For B8, which expression_or_secretion is on record?
**A.** increases

**Q.** With B9 as the molecule, how does the expression_or_secretion read?
**A.** increases

Target: not listed separately
Assay: immunoblot of SLAMF7 in co-transfected SNU761 cells
Conditions: glycan lost; control: Strep-TM4SF5 WT

**Q.** Which “other: downregulation of SLAMF7 level” value does the source give for B10 here?
**A.** abolishes
